Patent US20170260257A1
“And” between values parts separate entries of the source, which are not always exact repeats. Identical values can stand only once.

Target: BSA (UniProt P02769)
Assay: sandwich ELISA: plate coated with the antibody, BSA as negative sample, detection with sheep anti-HBsAg/peroxidase

Chain of BSA (P02769 25-607 limits assumed): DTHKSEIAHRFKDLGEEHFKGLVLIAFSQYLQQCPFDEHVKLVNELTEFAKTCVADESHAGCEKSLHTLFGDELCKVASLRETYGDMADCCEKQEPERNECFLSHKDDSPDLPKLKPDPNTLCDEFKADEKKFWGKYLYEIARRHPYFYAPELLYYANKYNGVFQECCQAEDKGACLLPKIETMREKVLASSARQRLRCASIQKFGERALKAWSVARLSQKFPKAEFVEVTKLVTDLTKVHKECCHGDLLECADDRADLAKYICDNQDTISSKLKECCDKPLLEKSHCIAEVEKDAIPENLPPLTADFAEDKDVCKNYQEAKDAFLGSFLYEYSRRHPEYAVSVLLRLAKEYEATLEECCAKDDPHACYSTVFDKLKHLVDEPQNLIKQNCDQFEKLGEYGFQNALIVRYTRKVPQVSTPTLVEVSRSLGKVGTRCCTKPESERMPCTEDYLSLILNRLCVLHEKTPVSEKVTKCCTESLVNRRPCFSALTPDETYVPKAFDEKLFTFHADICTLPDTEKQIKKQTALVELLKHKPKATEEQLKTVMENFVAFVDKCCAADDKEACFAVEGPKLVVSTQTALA

B1: the antibody of the present invention comprising a heavy-chain variable region having amino acid sequence of SEQ ID NO: 2 and a light-chain variable region … (antibody, V domains shown)
VH: EVQLVESGGGLVKPGGSLRLSCSASGFSLTKYKMTWVRQAPGKGLEWVSSISSTSRDIDYADSVKGRFTISRDNAKNSLFLQMSSLRVDDTAVYYCTRDGWLWGWDVRSNYYYNALDVWGQGTTVTVSS
VL: DIVVTQSPSSLSASVGDRVTITCRASQGIYNSIAWYQQKPGKAPKLLLYSTSTLLSGVPSRFSGSGSGTDYTLTITNLQPEDFATYYCQQYFVTPETFGQGTKLEIKR
- A450: 0.251 A450 and 0.263 A450
